Measured values reported in patent publication US20170081404A1.

Assays:
[1] = target: Biotin-GCN4 peptide (yeast); test: SPR (Biacore 3000, 25 C): Biotin-GCN4 peptide captured on immobilised streptavidin (CM5 chip), Fab-scFv injected as analyte, 1:1 binding model
[2] = target: Biotin-GCN4 peptide (yeast); test: SPR, Biacore 3000, 25 C; Biotin-GCN4 peptide captured on immobilised streptavidin (CM5), Fab-scFv injected in three-fold dilutions from 30 nM, 1:1 binding model

koff [1]: 0.00027 s⁻¹
kon [1]: 510000 M⁻¹ s⁻¹
Kd [2]: 0.516 nM
B1: Fab A-scFv '52SR4' (protein, part only; not given: Fab A heavy and light chains, not shown: another chain or arm of the molecule; a dimerising Fc or GST; small tags and cut ends)
scFv: DAVVTQESALTSSPGETVTLTCRSSTGAVTTSNYASWVQEKPDHLFTGLIGGTNNRAPGVPARFSGSLIGDKAALTITGAQTEDEAIYFCVLWYSDHWVFGCGTKLTVLGGGGGSGGGGSGGGGSGGGGSDVQLQQSGPGLVAPSQSLSITCTVSGFLLTDYGVNWVRQSPGKCLEWLGVIWGDGITDYNSALKSRLSVTKDNSKSQVFLKMNSLQSGDSARYYCVTGLFDYWGQGTTLTVSSAAAHHHHHHEQKLISEEDL
